Measured values reported in article PMC4852880.

Target: HMGB1b (rat, UniProt P63159 95-163)
Test: EMSA

Chain of HMGB1b (P63159 95-163): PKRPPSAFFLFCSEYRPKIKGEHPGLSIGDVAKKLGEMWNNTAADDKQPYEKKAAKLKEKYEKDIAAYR

B1: J1 (structured_DNA)
DNA 1: CGCAATCCTGAGCACG
DNA 2: CGTGCTCACCGAATCG
DNA 3: GCATTCGGACTATGGC
DNA 4: GCCATAGTGGATTGCG
B1: binds.
